Assay in all cases: native MS
The target of test [1] is cpTMV without any mutation at the S65 position (tobacco mosaic virus).
Test [2] concerns the target cpTMV-S65-3NY (tobacco mosaic virus).
For test [3] the target is unchanged. This is another data set of the same source.
Test [4] has as its target cpTMV-S65-pAF (tobacco mosaic virus).
The target in test [5] is cpTMV-S65C (tobacco mosaic virus).

The record followed here is paper PMC10395586.

Where “and” joins values, the source holds several entries; their conditions need not be identical. Equal values may be shown once. Read-outs that look alike come from different tables or passages of the source.

Regarding “cpTMV without any mutation at the S65 position”, the monomers per disk (monomers per disk) in test [1] came to 16.

With cpTMV-S65-3NY, the monomers per disk (monomers per disk) in test [2] turned out to be 17; in test [3] it was 16. For cpTMV-S65-pAF, the monomers per disk (two-disk stack) (monomers per disk) in test [4] is 16 and 17.

Turning to cpTMV-S65C, in test [5], the monomers per disk (monomers per disk) turned out to be 16.
